Results from US20250368744A1 (CONCEPT TO MEDICINE BIOTECH, published 2025).
Numbering of substitutions follows the chain as printed. Read-outs that look alike come from different tables or passages of the source.

T1: human CCR4 (human, UniProt P51679 1-360)
T1 construct: whole, on cells; also called hCCR4
T1 sequence (looked up): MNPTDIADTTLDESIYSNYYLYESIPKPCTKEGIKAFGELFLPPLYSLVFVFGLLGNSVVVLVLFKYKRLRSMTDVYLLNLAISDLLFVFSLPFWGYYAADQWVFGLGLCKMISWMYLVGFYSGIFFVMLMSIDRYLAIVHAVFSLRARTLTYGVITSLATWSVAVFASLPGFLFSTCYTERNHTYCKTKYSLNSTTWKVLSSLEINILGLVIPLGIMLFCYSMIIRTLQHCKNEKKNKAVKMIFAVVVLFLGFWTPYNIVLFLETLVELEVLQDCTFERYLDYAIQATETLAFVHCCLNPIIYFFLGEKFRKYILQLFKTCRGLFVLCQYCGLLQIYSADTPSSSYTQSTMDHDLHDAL

B1: 84D1-2H3 (antibody, V domains shown)
VH: EVQLQQSGPVLVKPGASVKMSCKASGYTFTDYYVNWVKKSHGKSPEWIGIIKPYNGGTSYNQKFKGKATLTVDKSSSTVYMELNSLTSEDSAVYHCARFAYSRNPYAMDYWGQGTSVTVSS
VL: DVLLTQTPLSLPVSLGDQASISCRSSQSIVHSTGNTYLEWYLQKPGQSPKVLIYKVSTRFSGVPDRFSGSGSGTDFTLKISRVEAEDLGVYYCFQGSHVPPTFGGGTKLEIK
notes: tested as chimeric mAb of the mouse hybridoma clone
B2: 86D4E12A5 (antibody, V domains shown)
VH: DLQLKESGPGLVKPSQSLSLTCSVTGYSITSGYYWNWIRQLPGNKLEWMGYISFDGSNNYNPSLKTRISITRDTSKNQFFLKLNSVTSEDTATYFCARLRGLLLGHFDVWGTGTTVTVSS
VL: DVQMTQSSSYLSVPLGGRVTITCKASDHINNRLAWYQQKPGNAPRLLISGATKLETGIPSRFRGSGSGKDYTLSIFSLQTEDVATYYCQQYWSTSYTFGGGTKLELR
notes: tested as chimeric mAb
B3: 96G3-1F10 (antibody, V domains shown)
VH: DLQLKESGPGLVKPSQSLSLTCSVTGYSITSGYYWNWIRQFPGNKLEWMGFISYDGNNNYNPSLKNRISITRDTSKNQFFLNVKSVTTEDTATYYCSRATGLRKAWFAYWGQGTLVTVSA
VL: DIQMTQSSSYLSVSLGGRVTITCKASDHINNWLAWYQQKPGNAPRLLISDTTSLGTGVPSRFRGSGSGKDYTLSITSLQTEDVATYFCQQYWSYPYTFGGGTKLEIR
notes: tested as chimeric mAb
B4: 101D5G10G4 (antibody, V domains shown)
VH: B3 VH with F51Y, V83L, K84N
VL: B3 VL
notes: tested as chimeric mAb
B5: 195H8D10 (antibody, V domains shown)
VH: EVQLVGSGGGLVQPKGSLKLSCAASGFNFNTYVMNWVRQAPGKGLEWVARIRTKSNNYATYYADSVKDRFTISRDDSESKLYLQMNNLKTEDTAMYYCVSGTITRLGGGLDYWGQGTSVTVSS
VL: DIVMTQAAPSVPVTPGESVSISCRSSKRLLHSNGNTYLYWFLQRPGQSPQLLIYRMSNLASGVPDRFSGSGSGTAFTLRISRVEAEDVGVYYCMQHLEYPFTFGGGTKLEIK
notes: tested as chimeric mAb; also called 195H8D10-C
B6: 187B5F10 (antibody, V domains shown)
VH: B5 VH with L110M
VL: B5 VL
notes: tested as chimeric mAb
B7: 195H8D10-C2 (antibody, V domains shown)
VH: B5 VH
VL: B5 VL with G34A
notes: also called 195H8D10 VH with 195H8D10 VL NG-NA
B8: 200C9B9 (antibody, V domains shown)
VH: B5 VH with G6E, N28S, E46N, Y61F, A63V, S79N, K80M, T90I, M95I, G108A
VL: B5 VL with R28S
notes: tested as chimeric mAb; also called 200C9B9-C
B9: 200C9B9-C2 (antibody, V domains shown)
VH: B5 VH with G6E, N28S, E46N, Y61F, A63V, S79N, K80M, T90I, M95I, G108A
VL: B5 VL with R28S, G34A
notes: also called 200C9B9 VH with 200C9B9 VL NG-NA
B10: Hu195H8D10-1 NG-NA (antibody, V domains shown)
VH: EVQLVESGGGLVQPGGSLRLSCAASGFNFNTYVMNWVRQAPGKGLEWVGRIRTKSNNYATYYADSVKDRFTISRDDSKNSLYLQMNSLKTEDTAVYYCARGTITRLGGGLDYWGQGTLVTVSS
VL: DIVMTQSPLSLPVTPGEPASISCRSSKRLLHSNANTYLYWYLQKPGQSPQLLIYRMSNLASGVPDRFSGSGSGTDFTLKISRVEAEDVGVYYCMQHLEYPFTFGGGTKLEIK
notes: humanized, PTM site removed
B11: Hu195H8D10-7 NG-NA (antibody, V domains shown)
VH: B10 VH with G49A, A99V, R100S
VL: B10 VL with D75A
notes: humanized, PTM site removed
B12: Hu200C9B9-3 NG-NA (antibody, V domains shown)
VH: B10 VH with N28S, Y61F, A63V, G108A
VL: B10 VL with R28S, D75A
notes: humanized, PTM site removed
B13: 4A19 (antibody, V domains shown)
VH: QVQLVQSGAEVKKPGASVKVSCKASGYTFTDSEMHWVRQATGQGLEWMGAIQPETGGTAYNQKFKARVTMTRDTSISTAYMELSSLRSEDTAVYYCARRRRNFDYWGQGTLVTVSS
VL: DIVMTQTPLSLSVTPGQPASISCRSSQSLFHSSGNTYLHWYLQKPGQPPQLLIYKVSNRFSGVPDRFSGSGSGTDFTLKISRVEAEDVGVYYCSQSTHVPFTFGQGTKLEIKR

Tests used:
human CCR4 = target: T1, human CCR4; assay: FACS, CHO-K1 hCCR4 cells
Procedure: (§1) Briefly, HEK293 hCCR8 cell line, CHO-K1 cyno CCR8 cell line or CHO-K1 hCCR4 cell line was first incubated with 5-fold serially diluted and 8 doses with the above 10 chimeric Abs and hlgG1 control starting from 100 nM at 4° C. for 30 mins. After washing by FACS buffer, PE Goat anti-Human IgG Fc Secondary Antibody (eBioscience™, Invitrogen) was added to each well and incubated at 4° C. for 30 mins. Samples were washed twice with FACS buffer. The mean florescence intensity (MFI) of PE was evaluated by MACSQuant Analyzer 16.

[1] = target: T2, human C-C motif chemokine receptor 8 (CCR8) (human, UniProt P51685 1-355); assay: cell-based or functional assay
[2] = target: T2, human C-C motif chemokine receptor 8 …; assay: FACS (MFI-PE) on HEK293 hCCR8 cells
Procedure: as §1

cyno CCR8 [3] = target: T3, cyno CCR8 (cynomolgus, UniProt G7NYJ2 1-355); assay: FACS (MFI-PE) on CHO-K1 cyno CCR8 cells
T3 construct: whole, on cells; also called cynomolgus CCR8 protein
Procedure: as §1

[4] = target: T2, human C-C motif chemokine receptor 8 …; assay: cell-based or functional assay; remark: listed apart in the source
[5] = target: T2, human C-C motif chemokine receptor 8 …; assay: cell-based or functional assay; remark: listed apart in the source
[6] = target: T2, human C-C motif chemokine receptor 8 …; assay: FACS (MFI-PE) on CHO-K1 hCCR8 cells
[7] = target: T2, human C-C motif chemokine receptor 8 …; assay: cell-based or functional assay; remark: listed apart in the source
cyno CCR8 [8] = target: T3, cyno CCR8; assay: FACS (MFI-PE) on CHO-K1 cyno CCR8 cells; remark: listed apart in the source
[9] = target: T2, human C-C motif chemokine receptor 8 …; assay: cell-based or functional assay; remark: listed apart in the source
[10] = target: T2, human C-C motif chemokine receptor 8 …; assay: FACS (MFI-PE) on HEK293 hCCR8 cells; remark: listed apart in the source
[11] = target: T2, human C-C motif chemokine receptor 8 …; assay: cell-based or functional assay; remark: listed apart in the source
[12] = target: T2, human C-C motif chemokine receptor 8 …; assay: cell-based or functional assay; remark: listed apart in the source
[13] = target: T2, human C-C motif chemokine receptor 8 …; assay: FACS (MFI PE) on HEK293 hCCR8 cells
[14] = target: T2, human C-C motif chemokine receptor 8 …; assay: cell-based or functional assay; remark: listed apart in the source

T3 sequence (G7NYJ2 entry or part of it): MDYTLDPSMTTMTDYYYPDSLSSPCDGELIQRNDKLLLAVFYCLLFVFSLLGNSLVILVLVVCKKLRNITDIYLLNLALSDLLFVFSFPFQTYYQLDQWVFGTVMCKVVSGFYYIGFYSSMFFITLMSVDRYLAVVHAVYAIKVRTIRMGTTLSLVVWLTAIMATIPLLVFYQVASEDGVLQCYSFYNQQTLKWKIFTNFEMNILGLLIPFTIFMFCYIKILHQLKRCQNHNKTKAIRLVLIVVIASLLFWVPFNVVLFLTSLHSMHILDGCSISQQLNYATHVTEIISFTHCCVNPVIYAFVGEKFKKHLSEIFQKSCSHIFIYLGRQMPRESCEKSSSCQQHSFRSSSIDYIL
T2 sequence (P51685 whole entry): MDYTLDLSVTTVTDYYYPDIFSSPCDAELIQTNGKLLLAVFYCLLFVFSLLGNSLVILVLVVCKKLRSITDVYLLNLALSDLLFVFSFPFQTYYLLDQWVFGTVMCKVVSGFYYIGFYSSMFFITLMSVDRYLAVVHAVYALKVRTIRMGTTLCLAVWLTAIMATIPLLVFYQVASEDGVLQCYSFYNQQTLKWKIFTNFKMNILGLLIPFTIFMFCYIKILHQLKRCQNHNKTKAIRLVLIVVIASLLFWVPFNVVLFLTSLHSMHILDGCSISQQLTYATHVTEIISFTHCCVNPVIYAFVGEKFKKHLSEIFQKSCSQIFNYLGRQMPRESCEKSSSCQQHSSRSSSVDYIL

| Binder | binding result (human CCR4) | EC50 [2] [nM] | EC50 (cyno CCR8 [3]) [nM] | IC50, hCCL1-induced migration of BaF3 hCCR8 cells (RLU) [cont'd) C] [5] [nM] | IC50, hCCL1-induced beta-arrestin recruitment (RLU), CHO-K1 hCCR8 cells [1] [nM] | IC50, hCCL1-induced Ca2+ flux (stimulation %), Chem-1 hCCR8 cells [lower graph] [4] [nM] | EC50 (cyno CCR8 [8]) [nM] | IC50, hCCL1-induced Ca2+ flux (stimulation %), Chem-1 hCCR8 cells [9] [nM] | EC50 [10] [nM] | IC50, hCCL1-induced beta-arrestin recruitment (RLU), CHO-K1 hCCR8 cells [11] [nM] | further results |
| --- | --- | --- | --- | --- | --- | --- | --- | --- | --- | --- | --- |
| B1 | no binding (tested: 100 nM (highest concentration tested)) | 0.0473 | 0.0273 | – | – | – | – | – | – | – | IC50, hCCL1-induced beta-arrestin recruitment (RLU), CHO-K1 hCCR8 cells; fitted value, points scatter between about 24000 and 33000 RLU with no clear inhibition [1]: 0.206 nM; IC50, hCCL1-induced Ca2+ flux (stimulation %), Chem-1 hCCR8 cells; fitted value, the curve stays at about 93 to 100 % beside hIgG1 [upper graph] [4]: 22 nM |
| B2 | no binding (tested: 100 nM (highest concentration tested)) | 0.17 | 0.122 | 2.67 | 11.2 | 12.1 | – | – | – | – | IC50 (read off the curve), hCCL1-induced Ca2+ flux (stimulation %), Chem-1 hCCR8 cells [upper graph] [4]: ~2 nM |
| B3 | no binding (tested: 100 nM (highest concentration tested)) | 0.109 | 0.0853 | 5.28 | 9.01 | – | – | – | – | – | IC50, hCCL1-induced Ca2+ flux (stimulation %), Chem-1 hCCR8 cells [upper graph] [4]: 15.2 nM |
| B4 | no binding (tested: 100 nM (highest concentration tested)) | 0.117 | 0.118 | – | 96.9 | – | – | – | – | – | IC50, hCCL1-induced Ca2+ flux (stimulation %), Chem-1 hCCR8 cells [upper graph] [4]: 25.9 nM |
| B5 | no binding (tested: 100 nM (highest concentration tested)) | 0.0746 | 0.37 | 0.478 | 3.48 | 1.62 | 0.378 | 0.33 | 0.041 | – | EC50 [6]: 0.211 nM; IC50, hCCL1-induced beta-arrestin recruitment (RLU), CHO-K1 hCCR8 cells [7]: 0.55 nM |
| B6 | no binding (tested: 100 nM (highest concentration tested)) | 0.0769 | – | 0.721 | – | 1.55 | – | – | – | – | – |
| B7 | – | – | – | – | – | – | 0.517 | – | – | – | IC50, hCCL1-induced beta-arrestin recruitment (RLU), CHO-K1 hCCR8 cells [7]: 0.288 nM |
| B8 | no binding (tested: 100 nM (highest concentration tested)) | 0.0741 | 3.16 | 0.798 | 0.771 | 1.89 | 1.53 | 0.55 | 0.05 | 3.02 | EC50 [6]: 0.132 nM; IC50, hCCL1-induced beta-arrestin recruitment (RLU), CHO-K1 hCCR8 cells [7]: 0.143 nM |
| B9 | – | – | – | – | – | – | 14.6 | – | – | – | EC50 [6]: 0.207 nM |
| B10 | – | – | – | – | – | – | – | – | 0.033 | 1.52 | – |
| B11 | – | – | – | – | – | – | – | 0.49 | 0.092 | 5.25 | – |
| B12 | – | – | – | – | – | – | – | 0.21 | 0.052 | 1.74 | – |
| B13 | – | – | – | – | – | – | – | – | – | – | IC50, hCCL1-induced beta-arrestin recruitment (% stimulation), CHO-K1 hCCR8 cells [12]: 1.68 nM; EC50 [13]: 0.21 nM; IC50, hCCL1-induced Ca2+ flux (% stimulation), Chem-1 hCCR8 cells [14]: 12.9 nM |
